This passage reports signal in RFV results from US11193929.

Where no end group is shown, it is not given here. [ ]: non-standard residue; d: D form. AEEA = NCCOCCOCC(=O)O

Assay [1] concerns the target 3D5F7 monoclonal antibody, Fab' fragment coupled to alkaline phosphatase. Description: VIDAS one-step sandwich immunoassay; capture 19C7+B90 on tip, detection 3D5F7+7B9 Fab'-alkaline phosphatase; (10 ng/mL peptide).
The target is the same in assay [2]. Description: VIDAS one-step sandwich immunoassay; capture 19C7+B90 on tip, detection 3D5F7+7B9 Fab'-alkaline phosphatase; peptide at 2 ng/mL.
Assay [3] has the same target. Briefly: VIDAS one-step sandwich immunoassay; capture 19C7+B90 on tip, detection 3D5F7+7B9 Fab'-alkaline phosphatase; compound (5 ng/mL peptide).
The target is the same in assay [4]. Briefly: VIDAS one-step sandwich immunoassay; capture 19C7+B90 on tip, detection 3D5F7+7B9 Fab'-alkaline phosphatase; compound (50 ng/mL peptide).
Assay [5] shares this target. Briefly: VIDAS one-step sandwich immunoassay; capture 19C7+B90 on tip, detection 3D5F7+7B9 Fab'-alkaline phosphatase; compound at (1 ng/mL peptide).
Assay [6] shares this target. Description: VIDAS one-step sandwich immunoassay; capture 19C7+B90 on tip, detection 3D5F7+7B9 Fab'-alkaline phosphatase; compound at (20 ng/mL peptide).
Assay [7] shares this target. Description: VIDAS one-step sandwich immunoassay; capture 19C7+B90 on tip, detection 3D5F7+7B9 Fab'-alkaline phosphatase; peptide (20 ng/mL peptide).
For assay [8] the target is unchanged. Description: VIDAS one-step sandwich immunoassay; capture 19C7+B90 on tip, detection 3D5F7+7B9 Fab'-alkaline phosphatase; peptide (50 ng/mL peptide).
Assay [9] shares this target. Briefly: VIDAS one-step sandwich immunoassay; capture 19C7+B90 on tip, detection 3D5F7+7B9 Fab'-alkaline phosphatase; peptide (100 ng/mL peptide).
Assay [10] has the same target. Briefly: VIDAS one-step sandwich immunoassay; capture 19C7+B90 on tip, detection 3D5F7+7B9 Fab'-alkaline phosphatase; peptide (200 ng/mL peptide).
The target is the same in assay [11]. Briefly: VIDAS one-step sandwich immunoassay; capture 19C7+B90 on tip, detection 3D5F7+7B9 Fab'-alkaline phosphatase; peptide at (500 ng/mL peptide).
Assay [12] shares this target. Briefly: VIDAS one-step sandwich immunoassay; capture 19C7+B90 on tip, detection 3D5F7+7B9 Fab'-alkaline phosphatase; peptide at (1000 ng/mL peptide).
For assay [13] the target is unchanged. Description: VIDAS one-step sandwich immunoassay; capture 19C7+B90 on tip, detection 3D5F7+7B9 Fab'-alkaline phosphatase; peptide at (2000 ng/mL peptide).
Assay [14] has the same target. Description: VIDAS one-step sandwich immunoassay; capture 19C7+B90 on tip, detection 3D5F7+7B9 Fab'-alkaline phosphatase; peptide at (4000 ng/mL peptide).

B1: Compound 3 (Peptide 1 - IgG) (peptide, part only; not given: polyclonal rabbit IgG carrier, part only)
peptide: ATEPHAKKK[AEEA][AEEA]CAGLGFAELQDL-NH2
modifications: not fully specified (some residues); numbers in words are those of the source; also: Cys thioether-coupled to IgG carrier, about 10 peptides per IgG
With B1, the signal in RFV worked out at 1690 RFV in assay [1]; 360 RFV in [2]; 882 RFV in assay [3]; 6210 RFV in [4]; 175 RFV in assay [5]; 3280 RFV in assay [6].

B2: Noncoupled peptide 1 (peptide)
peptide: ATEPHAKKKCAGLGFAELQDL
modifications: (Ado)2 (dimer of 8-amino-3,6-dioxaoctanoic acid) between ATEPHAKKK and C and between C and AGLGFAELQDL; C-terminal amide
In the case of B2, the signal in RFV is 2 RFV in [7]; 21 RFV in assay [8]; 69 RFV in assay [9]; 356 RFV in assay [10]; 1820 RFV in [11]; 3800 RFV in assay [12]. The values for the signal in RFV in assay [13] and in assay [14] were 6140 RFV and 7540 RFV, respectively.
